Data on five molecules can be found in paper PMC8219380, “The discriminatory power of the T cell receptor” (eLife, 2021).

The target in assay [1] is Tax 5F peptide on HLA-A*02:01 (human | HTLV-1). Nature of the assay: SPR; 37°C.
For assay [2] the target is unchanged. Nature of the assay: SPR. (In general: In SPR one partner is held on a chip, and binding of the other changes the refractive index at the surface.)
The target of assay [3] is Tax 8F peptide on HLA-A*02:01 (human | HTLV-1). Kind of assay: SPR.
The target in assay [4] is Tax 7H peptide on HLA-A*02:01 (human | HTLV-1). Kind of assay: SPR.
Assay [5] addresses Tax 5H8A peptide on HLA-A*02:01 (human | HTLV-1). Kind of assay: SPR.
The target in assay [6] is Tax 8A peptide on HLA-A*02:01 (human | HTLV-1). Kind of assay: SPR.
Assay [7] concerns the target Tax 5W peptide on HLA-A*02:01 (human | HTLV-1). Kind of assay: SPR.
Assay [8] addresses Tax 4A8A peptide on HLA-A*02:01 (human | HTLV-1). Kind of assay: SPR.
In assay [9] the target is Tax 7R peptide on HLA-A*02:01 (human | HTLV-1). Nature of the assay: SPR.
Assay [10] has as its target Tax 5H peptide on HLA-A*02:01 (human | HTLV-1). Kind of assay: SPR.
The target in assay [11] is Tax 4A peptide on HLA-A*02:01 (human | HTLV-1). Nature of the assay: SPR.
Assay [12] addresses Tax 1V peptide on HLA-A*02:01 (human | HTLV-1). Kind of assay: SPR.
The target of assay [13] is Tax 7T peptide on HLA-A*02:01 (human | HTLV-1). Nature of the assay: SPR.
Assay [14] addresses Tax 1A peptide on HLA-A*02:01 (human | HTLV-1). Kind of assay: SPR.
Assay [15] concerns the target Tax 6V peptide on HLA-A*02:01 (human | HTLV-1). Kind of assay: SPR.
A further assay has as its target 1G4 TCR. Kind of assay: SPR, 1G4 TCR binding to immobilised pMHC (steady state, 37°C). Set-up: species or system human. The following applies: Bmax fitted, read-out: KD (standard protocol).
In assay [16] the target is NYE 5F peptide on HLA-A*02:01. Nature of the assay: SPR; 37°C.
The target in assay [17] is NYE 5F peptide on HLA-A*02:01. Nature of the assay: SPR; Bmax constrained, 37°C.
For assay [18], the target named is NYE 9V peptide on HLA-A*02:01. Nature of the assay: SPR; Bmax constrained, 37°C.
Assay [19] deals with NYE 6T peptide on HLA-A*02:01. Nature of the assay: SPR.
In assay [20] the target is NYE 9V peptide on HLA-A*02:01 (pMHC). Nature of the assay: SPR.
Assay [21] has as its target NYE 3A peptide on HLA-A*02:01. Nature of the assay: SPR.
Assay [22] deals with NYE 3Y peptide on HLA-A*02:01. Nature of the assay: SPR.
The target of assay [23] is NYE 5Y peptide on HLA-A*02:01. Kind of assay: SPR.
The target in assay [24] is NYE 4A peptide on HLA-A*02:01. Kind of assay: SPR.
Assay [25] deals with NYE 5F peptide on HLA-A*02:01. Nature of the assay: SPR.
Assay [26] deals with NYE 9V peptide on HLA-A*02:01. Nature of the assay: SPR.
Assay [27] has as its target NYE 5F peptide on HLA-A*02:01. Nature of the assay: SPR; Bmax fitted, 37°C.
Assay [28] has as its target NYE 9V peptide on HLA-A*02:01. Kind of assay: SPR; Bmax fitted, 37°C.
Assay [29] concerns the target NY-ESO-1 (NYE 9V: heteroclitic variant of the wild-type NYE-ESO 157–165 9C peptide) peptide on HLA-A*02:01 (human). Kind of assay: SPR at 37°C (Biacore T200), soluble 1G4 injected over immobilised biotinylated pMHC; standard method with fitted Bmax; Figure 1A–C left column, which the legend names NYE 9V; soluble, other.
In assay [30] the target is NY-ESO-1 (peptide variant NYE 5F) peptide on HLA-A*02:01 (human). Nature of the assay: SPR at 37°C, new method with Bmax constrained by the W6/32 standard curve; soluble, other.
For assay [31], the system named is IL-2 receptor subunit β (IL-2Rb). Kind of assay: Discrimination power from published data: IL-2 receptor. The following applies: n 4, ref Levin 2012. An excerpt: The broad method was to obtain a measure of ligand potency from each study. […] If not explicitly provided, we estimated ligand potency as PX , which was defined by the concentration of ligand that produced X response. To do this, we drew a horizontal line at X on a provided dose-response graph and estimated the ligand concentration where the data intercepted the horizontal line. The disadvantage with this method is that ligand potency was estimated based on the single representative graph provided in the study.
Each study often contained or cited a study that contained estimates of KD or koff for the specific TCR/pMHC interactions used in the study. We only included studies where monomeric SPR binding data was available to avoid multimeric binding parameters (e.g. when using tetramers). However, when analysing discrimination by other non-TCR receptors, we included binding data from various methods (e.g. SPR, radio labelled ligands) provided they were monomeric measurements. The use of SPR is important for weak interactions, such as TCR/pMHC, but various methods are available for higher-affinity interactions.
The plot of potency over KD or k off was fit using linear regression on log-transformed axes. We reported the slope of the fit (i.e. the discrimination power, α), the goodness-of-fit measure ( R^2 ), and the p-value for the null hypothesis that the slope is zero (i.e. α=0 ). […]

Where “and” joins values, the source holds several entries; their conditions need not be identical. Identical values can stand only once.

Take soluble A6 αβ TCR: the Kd – broadly, the constant that tells how readily two partners part at equilibrium – is 3 µM in assay [1]; 3.36 µM and 2.67 µM in assay [2]; 37.1 µM and 60 µM in assay [3]; 45.8 µM and 67.8 µM in [4]; 2820 µM and 2320 µM in [5]; 599 µM and 565 µM in assay [6]. Besides, the Kd is 6.08 µM and 5 µM in assay [7]; 194 µM and 1870 µM in assay [8]; 11.5 µM and 21.4 µM in assay [9]; 36.2 µM and 56.1 µM in assay [10]; 72.5 µM and 118 µM in assay [11]; 6.92 µM and 7.97 µM in assay [12]. Also, the dissociation constant Kd is 3.42 µM and 2.8 µM in assay [13]; 4.25 µM and 6.5 µM in [14]; 13.5 µM and 21.1 µM in assay [15].
In the case of “NY-ESO-1 peptide: cognate NY-ESO-1 peptide of the 1G4 TCR”, the Kd on 1G4 TCR was about 7 µM.
For the molecule soluble 1G4 αβ TCR, the Kd stood at 1310 µM in assay [16]; 1590 µM in assay [17]; 4.6 µM in assay [18]; 162 µM in assay [19] (Bmax constrained (new method)); 84.6 µM in [19] (Bmax fitted (standard method)); 7 µM in assay [20]. The Kd worked out at 6.28 µM in assay [21] (Bmax constrained (new method)); 7.04 µM in [21] (Bmax fitted (standard method)); 47.3 µM in assay [22] (Bmax constrained (new method)); 36.3 µM in assay [22] (Bmax fitted (standard method)); 433 µM in [23] (Bmax constrained (new method)); 191 µM in [23] (Bmax fitted (standard method)). The Kd was 299 µM in [24] (Bmax constrained (new method)); 157 µM in assay [24] (Bmax fitted (standard method)); 756 µM in assay [25]; 4.93 µM in [26] (Bmax constrained (new method)); 7.97 µM in assay [26] (Bmax fitted (standard method)); 198 µM in [27]. In addition, the Kd in assay [28] worked out at 6.8 µM.
Regarding 1G4 TCR, the Kd was found to be 7 µM in assay [29] and 1310 µM in assay [30].

B1: IL-2R beta (protein, UniProt P14784 27-551, looked up)
Interleukin-2 receptor …: AVNGTSQFTCFYNSRANISCVWSQDGALQDTSCQVHAWPDRRRWNQTCELLPVSQASWACNLILGAPDSQKLTTVDIVTLRVLCREGVRWRVMAIQDFKPFENLRLMAPISLQVVHVETHRCNISWEISQASHYFERHLEFEARTLSPGHTWEEAPLLTLKQKQEWICLETLTPDTQYEFQVRVKPLQGEFTTWSPWSQPLAFRTKPAALGKDTIPWLGHLLVGLSGAFGFIILVYLLINCRNTGPWLKKVLKCNTPDPSKFFSQLSSEHGGDVQKWLSSPFPSSSFSPGGLAPEISPLEVLERDKVTQLLLQQDKVPEPASLSSNHSLTSCFTNQGYFFFHLPDALEIEACQVYFTYDPYSEEDPDEGVAGAPTGSSPQPLQPLSGEDDAYCTFPSRDDLLLFSPSLLGGPSPPSTAPGGSGAGEERMPPSLQERVPRDWDPQPLGPPTPGVPDLVDFQPPPELVLREAGEEVPDAGPREGVSFPWSRPPGQGEFRALNARLPLNTDAYLSLQELQGQDPTHLV
Consider B1, for which the “Power (discrimination power)” value came to 0.546 in assay [31] (ID 1, output CD25 – pSTAT5 (NK cells)) and 0.743 in [31] (ID 2, output CD25 – %pSTAT5 (T cells)).
